Measurements from paper PMC12749841 (Nature Communications, 2025).

Target: importin β (human, UniProt Q14974 1-876)
Assay: cryo-EM structure

Chain of importin β (Q14974 whole entry): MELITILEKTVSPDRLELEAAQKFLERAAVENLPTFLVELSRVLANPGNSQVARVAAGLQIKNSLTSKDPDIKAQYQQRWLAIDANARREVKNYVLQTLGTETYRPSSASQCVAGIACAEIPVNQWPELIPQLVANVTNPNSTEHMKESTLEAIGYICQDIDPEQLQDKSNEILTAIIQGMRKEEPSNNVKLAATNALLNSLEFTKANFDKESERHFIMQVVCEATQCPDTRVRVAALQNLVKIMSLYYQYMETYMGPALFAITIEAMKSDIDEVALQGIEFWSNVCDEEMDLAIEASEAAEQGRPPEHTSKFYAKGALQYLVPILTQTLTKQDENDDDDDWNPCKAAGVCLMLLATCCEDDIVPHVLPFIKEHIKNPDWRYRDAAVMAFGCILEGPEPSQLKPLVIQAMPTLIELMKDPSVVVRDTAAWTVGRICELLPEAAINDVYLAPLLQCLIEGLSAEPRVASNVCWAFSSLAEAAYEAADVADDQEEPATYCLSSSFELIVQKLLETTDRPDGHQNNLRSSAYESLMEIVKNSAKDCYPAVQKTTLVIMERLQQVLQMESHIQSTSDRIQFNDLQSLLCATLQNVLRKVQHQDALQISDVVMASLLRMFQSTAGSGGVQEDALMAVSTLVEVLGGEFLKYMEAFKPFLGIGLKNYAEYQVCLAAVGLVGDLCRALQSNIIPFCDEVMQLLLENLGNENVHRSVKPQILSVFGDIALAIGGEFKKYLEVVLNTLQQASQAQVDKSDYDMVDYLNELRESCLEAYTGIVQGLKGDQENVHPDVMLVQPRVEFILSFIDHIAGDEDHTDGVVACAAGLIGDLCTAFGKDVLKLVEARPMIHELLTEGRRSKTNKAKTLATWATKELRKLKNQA

binding result: binds
B1: importin α1 IBB domain (res 1–65) fused to 6xHis Maltose Binding Protein (domain or fragment)
chain: not shown
